Laboratory results reported in patent US20210095019A1 (I MAB, published 2021).
Where two headings read alike, the source gives them in different places. Each block holds one molecule with its values, some of them ahead of it.

Experiments:
[1] = target: Biotinylated CD47 protein (Acrobiosystems) (human) (UniProt Q08722); experiment: ELISA on coated biotinylated CD47 protein (1 ug/mL), anti-human Fc HRP
[2] = target: Recombinant human CD47-Fc fusion protein (Acrobiosystems) (human) (UniProt Q08722); experiment: blocking ELISA: SIRPa-His (1 ug/mL) binding to coated CD47-Fc, anti-His HRP
[3] = target: human red blood cells (CD47 on RBC) (human) (UniProt Q08722); experiment: flow cytometry on human RBCs, APC secondary antibody
[4] = target: human platelets (CD47 on CD61-positive platelets) (human) (UniProt Q08722); experiment: flow cytometry on human whole blood, gated on CD61+ platelets, antibody 10 ug/mL
[5] = target: Recombinant human CD47/mouse Fc fusion protein (Acrobiosystems) (human) (UniProt Q08722); experiment: ELISA on coated CD47/mouse Fc fusion protein (1 ug/ml), anti-human Fc HRP
[6] = target: primary human AML cells (CD47 on PBMCs of AML patient AML-PB003F) (human) (UniProt Q08722); experiment: flow cytometry on primary AML cells (AML-PB003F); concentration not given
[7] = target: primary human AML cells (CD47 on PBMCs of AML patient AML-PB003F) (human) (UniProt Q08722)
[8] = target: human CD47 on Raji cells (human) (UniProt Q08722); experiment: flow cytometry on Raji cells, APC anti-human Fc
[9] = target: human red blood cells (CD47 on RBC) (human) (UniProt Q08722); experiment: flow cytometry on human RBCs, Donor 2, antibody 10 ug/mL
[10] = target: primary human AML cells (CD47 on PBMCs of AML patient AML-PB003F) (human) (UniProt Q08722); remark: listed apart in the source
[11] = target: human red blood cells (CD47 on RBC) (human) (UniProt Q08722); experiment: flow cytometry on human RBCs, Donor 1, antibody 10 ug/mL
[12] = target: T1, Biotinylated CD47 protein (Acrobiosystems) (human, UniProt Q08722 19-139, biotinylated (site not stated)); experiment: ELISA on coated biotinylated CD47 protein (1 ug/mL), anti-human Fc HRP
T1 construct: extracellular domain; Bought reagent; also called monomeric CD47-ECD; biotinylated human CD47-ECD protein
Experimental: After coating of antigen, the wells were blocked with PBS/0.05% Tween (PBST) with 1% BSA for 1 hour at RT. […] Between all incubation steps, the wells of the plate were washed with PBST three times. Fluorescence was measured in a TECAN Spectrafluor plate reader.

EC50 (read off the curve) [1]: 0.03 mg/L
IC50 (read off the curve) [2]: 0.2 mg/L
EC50 (read off the curve) [3]: 0.06 mg/L
Binding (percent of CD61+ platelets in the gate) [4]: 0.41%
EC50 (read off the curve) [5]: 0.006 mg/L
AML Binding (percent of cells in the gate) [6]: 75.1%
phagocytosis: percent of CFSE+ AML cells among CD14+ macrophages [7]: 36.8%
EC50 (read off the curve) [8]: 0.1 mg/L
Molecule: Reference antibody 2A1 (produced according to the sequence of CC-90002)

Binding (percent of RBC in the gate) [9]: 0.018%
phagocytosis: percent of CFSE+ AML cells among CD14+ macrophages [10]: 27%
AML Binding (percent of cells in the gate) [6]: 27.6%
Binding (percent of RBC in the gate) [11]: 0.079%
Molecule: IgG (antibody)

Binding (percent of RBC in the gate) [9]: 0.076%
Binding (percent of CD61+ platelets in the gate) [4]: 0.77%
EC50 (read off the curve) [12]: ~0.008 mg/L
Binding (percent of RBC in the gate) [11]: 0.065%
B1: CD47 antibody 1F8 (antibody, V domains shown)
VH: KVQLVESGGGLVKPGGSLRLSCAASGFTFSNAWMNWVRQAPGKGLEWVGRIKRKTDGETTDYAAPVKGRFSISRDDSKNTLYLQMNSLKTEDTAVYYCAGSNRAFDIWGQGTMVTVSA
VL: DIVMTQSPDSLAVSLGERATINCKSSQSVLYSSNNRNYLAWYQQKPGQPPKLLINQASTRASGVPDRFSGSGSGTEFTLIISSLHAEDVAIYYCQQYYTPPLAFGGGTKLEIK
